Measurements published in patent US20240067758A1 (UCB, published 2024).
Where a chain is given by its changes, count along the chain named. Names and notes keep the numbering of the source.

T1: Human IL22 (human, UniProt Q9GZX6 34-179)
T1 construct: IL22 of the Biacore and cell assays
T1 sequence: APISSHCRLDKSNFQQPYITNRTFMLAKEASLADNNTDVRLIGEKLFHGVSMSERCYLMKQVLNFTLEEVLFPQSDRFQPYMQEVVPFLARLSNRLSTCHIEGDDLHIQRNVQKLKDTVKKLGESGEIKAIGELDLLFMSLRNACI

B1: 11041gL1 C91S gH1 D54E (Fab, V domains shown)
VH: EVQLVESGGGLVQPGGSLRLSCAVSGFSLSSYAMIWVRQAPGKGLEWIGIIDIEGSTYYASWAKGRFTISRDSSKNTVYLQMNSLRAEDTAVYYCARDRFVGVDIFDPWGQGTLVTVSS
VL: AVVLTQSPSSLSASVGDRVTITCQASEDIYTNLAWYQQKPGKAPKLLIYWASTLASGVPSRFSGSGSGTDFTLTISSLQPEDFATYYCQASVYGNSADSRYTFGGGTKVEIK
notes: V-regions only; also called 11041gL2gH3
B2: 11041gL6 C91S S96A gH8 D54E (Fab, V domains shown)
VH: B1 VH with V78L
VL: AVQLTQSPSSLSASVGDRVTITCQASEDIYTNLAWYQQKPGKAPKLLIYWASTLASGVPSRFSGSGSGTDFTLTISSLQPEDFATYYCQASVYGNAADSRYTFGGGTKVEIKR
notes: also called 11041gL13gH15
B3: 11041gL6 C91S gH5 D54E (Fab, V domains shown)
VH: B1 VH with S73N
VL: B1 VL with V3Q
notes: also called 11041gL11gH14
B4: 11041gL1gH1 (Fab, V domains shown)
VH: B1 VH with E54D
VL: B1 VL with S91C
notes: Human Fab format (human kappa, human gamma-1 CH1); V-regions only
B5: 11041gL6gH1 (Fab, V domains shown)
VH: B1 VH with E54D
VL: B1 VL with V3Q, S91C
notes: V-regions only
B6: 11041gL1 C91S S96AgH15 (Fab, V domains shown)
VH: B1 VH with V78L
VL: B1 VL with S96A
notes: V-regions only; also called 11041gL10gH15; gH15 = gH8 D54E
B7: 11041gL7 C91S gH12 D54E (Fab, V domains shown)
VH: B1 VH with G49S, S73N, V78L
VL: B1 VL with V2I, V3Q
notes: V-regions only; also called 11041gL12gH18
B8: 11041gL7 C91S gH5 D54E (Fab, V domains shown)
VH: B1 VH with S73N
VL: B1 VL with V2I, V3Q
notes: also called 11041gL12gH14
B9: 11041gL7 C91S S96A gH12 D54E (Fab, V domains shown)
VH: B1 VH with G49S, S73N, V78L
VL: B1 VL with V2I, V3Q, S96A
notes: V-regions only; also called 11041gL14gH18
B10: 11041gL1 C91S S96AgH18 (Fab, V domains shown)
VH: B1 VH with G49S, S73N, V78L
VL: B1 VL with S96A
notes: V-regions only; also called 11041gL10gH18; gH18 = gH12 D54E
B11: 11041gL1 C91S S96A gH5 D54E (Fab, V domains shown)
VH: B1 VH with S73N
VL: B1 VL with S96A
notes: heavy chain is the gH5 D54E (gH14) Fab heavy chain; also called 11041gL10gH14
B12: 11041gL7 C91S S96A gH5 D54E (Fab, V domains shown)
VH: B1 VH with S73N
VL: B1 VL with V2I, V3Q, S96A
notes: also called 11041gL14gH14
B13: 11041gL6 C91S S96A gH12 D54E (Fab, V domains shown)
VH: B1 VH with G49S, S73N, V78L
VL: B2 VL
notes: also called 11041gL13gH18
B14: 11041gL1 S96A gH1 D54E (Fab, V domains shown)
VH: B1 VH
VL: B1 VL with S91C, S96A
notes: V-regions only; also called 11041gL9gH3
B15: 11041gL7gH1 (Fab, V domains shown)
VH: B1 VH with E54D
VL: B1 VL with V2I, V3Q, S91C
notes: V-regions only
B16: 11041gL1gH1 D54E (Fab, V domains shown)
VH: B1 VH
VL: B1 VL with S91C
notes: V-regions only; also called 11041gL1gH3
B17: 11041gL7 C91S S96A gH11 D54E (Fab, V domains shown)
VH: B1 VH with I48V, S73N, V78L
VL: B1 VL with V2I, V3Q, S96A
notes: V-regions only; also called 11041gL14gH17
B18: 11041gL1gH8 (Fab, V domains shown)
VH: B1 VH with E54D, V78L
VL: B1 VL with S91C
notes: V-regions only
B19: 11041gL6 C91S gH8 D54E (Fab, V domains shown)
VH: B1 VH with V78L
VL: B1 VL with V3Q
notes: V-regions only; also called 11041gL11gH15
B20: 11041gL1gH1 G55A (Fab, V domains shown)
VH: B1 VH with E54D, G55A
VL: B1 VL with S91C
notes: V-regions only; also called 11041gL1gH2
B21: 11041gL1gH5 (Fab, V domains shown)
VH: B1 VH with E54D, S73N
VL: B1 VL with S91C
notes: V-regions only
B22: 11041gL6 C91S gH11 D54E (Fab, V domains shown)
VH: B1 VH with I48V, S73N, V78L
VL: B1 VL with V3Q
notes: V-regions only; also called 11041gL11gH17
B23: 11041gL1 C91S gH9 (Fab, V domains shown)
VH: B1 VH with V24A, E54D
VL: B1 VL
notes: V-regions only; also called 11041gL2gH9
B24: 11041gL7 C91S gH11 D54E (Fab, V domains shown)
VH: B1 VH with I48V, S73N, V78L
VL: B1 VL with V2I, V3Q
notes: V-regions only; also called 11041gL12gH17
B25: 11041gL6 C91S S96A gH11 D54E (Fab, V domains shown)
VH: B1 VH with I48V, S73N, V78L
VL: B2 VL
notes: also called 11041gL13gH17
B26: 11041gL7 C91S gH8 D54E (Fab, V domains shown)
VH: B1 VH with V78L
VL: B1 VL with V2I, V3Q
notes: V-regions only; also called 11041gL12gH15
B27: 11041gL1gH1 D107E (Fab, V domains shown)
VH: B1 VH with E54D, D107E
VL: B1 VL with S91C
notes: V-regions only; also called 11041gL1gH4
B28: 11041gL1 N95D gH1 (Fab, V domains shown)
VH: B1 VH with E54D
VL: B1 VL with S91C, N95D
notes: V-regions only; also called 11041gL8gH1
B29: 11041gL6 C91S gH12 D54E (Fab, V domains shown)
VH: B1 VH with G49S, S73N, V78L
VL: B1 VL with V3Q
notes: V-regions only; also called 11041gL11gH18
B30: 11041gL7 C91S S96A gH8 D54E (Fab, V domains shown)
VH: B1 VH with V78L
VL: B1 VL with V2I, V3Q, S96A
notes: V-regions only; also called 11041gL14gH15
B31: 11041gL1 S96A gH1 (Fab, V domains shown)
VH: B1 VH with E54D
VL: B1 VL with S91C, S96A
notes: V-regions only; also called 11041gL9gH1
B32: 11041gL1 C91S S96AgH17 (Fab, V domains shown)
VH: B1 VH with I48V, S73N, V78L
VL: B1 VL with S96A
notes: V-regions only; also called 11041gL10gH17; gH17 = gH11 D54E

Biological target: T1, Human IL22
Assay: SPR (Biacore); Fab variant, human IL22

Kd | Binder
0.0281 nM | B1
0.0849 nM | B2
0.0161 nM | B3
0.642 nM | B4
0.369 nM | B5
0.079 nM | B6
0.0739 nM | B7
0.0293 nM | B8
0.0676 nM | B9
0.0454 nM | B10
0.0233 nM | B11
0.0266 nM | B12
0.0517 nM | B13
0.0888 nM | B14
0.446 nM | B15
0.166 nM | B16

Kd | Binder
0.0617 nM | B17
0.274 nM | B18
0.106 nM | B19
0.627 nM | B20
0.378 nM | B21
0.0516 nM | B22
0.0114 nM | B23
0.0666 nM | B24
0.0524 nM | B25
0.115 nM | B26
0.657 nM | B27
0.129 nM | B28
0.0444 nM | B29
0.104 nM | B30
0.2 nM | B31
0.0398 nM | B32
